Experiments:
[1] = target: T1, huPAD2-deiminated human recombinant histone 2B (human); experiment: ELISA, Ab 0.016 ug/well
T1 construct: also called H2B/p2
Description: (§1) The resulting OD (y-axis) is a measure for antibody binding. H1-recombinant histone 1; H1/p2-huPAD2 recombinant histone 1; H1/p4-huPAD4 recombinant histone 1, and so forth (x-axis).

[2] = target: T2, human recombinant histone 2B (human); experiment: ELISA, Ab 0.016 ug/well
T2 construct: Non-deiminated; also called H2B
Description: as §1

[3] = target: T3, huPAD4-deiminated human recombinant histone 2B (human); experiment: ELISA, Ab 0.016 ug/well
T3 construct: also called H2B/p4
Description: as §1

[4] = target: T4, human recombinant histone 4 (human, UniProt P62805 2-103); experiment: ELISA, Ab 0.016 ug/well
Description: as §1

[5] = target: T5, huPAD4-deiminated human recombinant histone 2A (human); experiment: ELISA, Ab 0.016 ug/well
T5 construct: also called H2A/p4; histone 2A/p4
Description: as §1

[6] = target: T6, huPAD2-deiminated human recombinant histone 3 (human); experiment: ELISA, Ab 0.016 ug/well
T6 construct: also called H3/p2; histone 3/p2
Description: as §1

[7] = target: T7, human recombinant histone 2A (human); experiment: ELISA, Ab 0.016 ug/well
T7 construct: Non-deiminated; also called H2A
Description: as §1

[8] = target: T8, CFC-1; experiment: ELISA, Ab 0.016 ug/well
T8 construct: Positive control for anti-citrulline reactivity; also called cfc1 XG; Cfc1-peptide
Description: as §1

[9] = target: T9, huPAD4-deiminated human recombinant histone 3 (human); experiment: ELISA, Ab 0.016 ug/well
T9 construct: also called H3/p4
Description: as §1

[10] = target: T10, huPAD2-deiminated human recombinant histone 2A (human); experiment: ELISA, Ab 0.016 ug/well
T10 construct: also called H2A/p2; histone 2A/p2
Description: as §1

[11] = target: T1, huPAD2-deiminated human recombinant …; experiment: ELISA, Ab 0.08 ug/well
Description: as §1

[12] = target: T2, human recombinant histone 2B; experiment: ELISA, Ab 0.08 ug/well
Description: as §1

[13] = target: T3, huPAD4-deiminated human recombinant …; experiment: ELISA, Ab 0.08 ug/well
Description: as §1

[14] = target: T4, human recombinant histone 4; experiment: ELISA, Ab 0.08 ug/well
Description: as §1

[15] = target: T5, huPAD4-deiminated human recombinant …; experiment: ELISA, Ab 0.08 ug/well
Description: as §1

[16] = target: T6, huPAD2-deiminated human recombinant …; experiment: ELISA, Ab 0.08 ug/well
Description: as §1

[17] = target: T7, human recombinant histone 2A; experiment: ELISA, Ab 0.08 ug/well
Description: as §1

[18] = target: T8, CFC-1; experiment: ELISA, Ab 0.08 ug/well
Description: as §1

[19] = target: T9, huPAD4-deiminated human recombinant …; experiment: ELISA, Ab 0.08 ug/well
Description: as §1

[20] = target: T10, huPAD2-deiminated human recombinant …; experiment: ELISA, Ab 0.08 ug/well
Description: as §1

[21] = target: ribosomal protein L29 [Homo sapiens] (Homo sapiens); experiment: IP of deiminated HEK293 lysate + MS emPAI; reference RhmAb2.101
Description: (§2) Beads were subjected to three washes with 1 ml IPP500, one wash with 1 ml IPP150 (10 mM Tris/HCl pH 8.0, 150 mM NaCl, 0.1% NP40 and 0.1% TWEEN®-20), and subsequently incubated at room temperature with 300 p1 deiminated HEK293 lysate for 2 hours under constant rotation. Beads were washed three times with 1 ml of IPP150, after which a small part has been used for SDS-PAGE electrophoresis to determine if the IP procedure with the HEK293 cells was successful.
(§3) The exponentially modified protein abundance index (emPAI) was calculated for all validated proteins.

[22] = target: PREDICTED: similar to 60S ribosomal protein L29 (Cell surface heparin-binding protein HIP) [Homo sapiens] (Homo sapiens); experiment: as above
Description: as §2, §3

[23] = target: T1, huPAD2-deiminated human recombinant …; experiment: ELISA, Ab 0.00064 ug/well
Description: as §1

[24] = target: T2, human recombinant histone 2B; experiment: ELISA, Ab 0.00064 ug/well
Description: as §1

[25] = target: T3, huPAD4-deiminated human recombinant …; experiment: ELISA, Ab 0.00064 ug/well
Description: as §1

[26] = target: T4, human recombinant histone 4; experiment: ELISA, Ab 0.00064 ug/well
Description: as §1

[27] = target: T5, huPAD4-deiminated human recombinant …; experiment: ELISA, Ab 0.00064 ug/well
Description: as §1

[28] = target: T7, human recombinant histone 2A; experiment: ELISA, Ab 0.00064 ug/well
Description: as §1

[29] = target: T8, CFC-1; experiment: ELISA, Ab 0.00064 ug/well
Description: as §1

[30] = target: T10, huPAD2-deiminated human recombinant …; experiment: ELISA, Ab 0.00064 ug/well
Description: as §1

[31] = target: T1, huPAD2-deiminated human recombinant …; experiment: ELISA, Ab 10 ug/well
Description: as §1

[32] = target: T2, human recombinant histone 2B; experiment: ELISA, Ab 10 ug/well
Description: as §1

[33] = target: T3, huPAD4-deiminated human recombinant …; experiment: ELISA, Ab 10 ug/well
Description: as §1

[34] = target: T4, human recombinant histone 4; experiment: ELISA, Ab 10 ug/well
Description: as §1

[35] = target: T5, huPAD4-deiminated human recombinant …; experiment: ELISA, Ab 10 ug/well
Description: as §1

[36] = target: T6, huPAD2-deiminated human recombinant …; experiment: ELISA, Ab 10 ug/well
Description: as §1

[37] = target: T7, human recombinant histone 2A; experiment: ELISA, Ab 10 ug/well
Description: as §1

[38] = target: T8, CFC-1; experiment: ELISA, Ab 10 ug/well
Description: as §1

[39] = target: T9, huPAD4-deiminated human recombinant …; experiment: ELISA, Ab 10 ug/well
Description: as §1

[40] = target: T10, huPAD2-deiminated human recombinant …; experiment: ELISA, Ab 10 ug/well
Description: as §1

B1: RhmAb2.102 (antibody, human IgG1, lambda)
heavy: not shown
light: QSVLTQPPSMSAAPGQKVTISCSGSSSNIGNNYVSWYQQVPGTAPKLLIYDDNKRPSGIPGRFSGSKSATSATLGITGLQAGDEADYYCGSWDDNLSVVLFGGGTKLTVLGQPKAAPSVTLFPPSSEELQANKATLVCLISDFYPGAVTVAWKADSSPVKAGVETTTPSKQSNNKYAASSYLSLTPEQWKSHRSYSCQVTHEGSTVEKTVAPTECS
notes: Human IgG1 lambda; also called Rhm2.102
[1]
  OD: 0.052 OD450
[2]
  OD: 0.065 OD450
[3]
  OD: 0.052 OD450
[4]
  OD: 0.061 OD450
[5]
  OD: 0.426 OD450
[6]
  OD: 0.155 OD450
[7]
  OD: 0.057 OD450
[8]
  OD: 0.702 OD450
[9]
  OD: 0.076 OD450
[10]
  OD: 0.628 OD450
[11]
  OD: 0.053 OD450
[12]
  OD: 0.054 OD450
[13]
  OD: 0.052 OD450
[14]
  OD: 0.067 OD450
[15]
  OD: 1.75 OD450
[16]
  OD: 0.493 OD450
[17]
  OD: 0.06 OD450
[18]
  OD: 2.15 OD450
[19]
  OD: 0.093 OD450
[20]
  OD: 1.96 OD450
[21]
  Ratio 102/101 (emPAI): 0.5 ratio
[22]
  Ratio 102/101 (emPAI): 1 ratio
[23]
  OD: 0.052 OD450
[24]
  OD: 0.052 OD450
[25]
  OD: 0.055 OD450
[26]
  OD: 0.06 OD450
[27]
  OD: 0.075 OD450
[28]
  OD: 0.057 OD450
[29]
  OD: 0.077 OD450
[30]
  OD: 0.077 OD450
[31]
  OD: 0.31 OD450
[32]
  OD: 0.247 OD450
[33]
  OD: 0.229 OD450
[34]
  OD: 0.825 OD450
[35]
  OD: 3.42 OD450
[36]
  OD: 2.44 OD450
[37]
  OD: 0.428 OD450
[38]
  OD: 3.48 OD450
[39]
  OD: 1.31 OD450
[40]
  OD: 3.41 OD450

From patent publication US20150307603A1 (MODIQUEST B V, published 2015)
